{"source": "the supplement of paper PMC10567573", "parents": {"B1": {"name": "ZNF449 (parent)", "chain": "QLTGHQRIHSGEEPHKCPECGKRF"}}, "data": [{"variants_of": "B1", "test": "protein stability index of a GFP-peptide fusion (GPS, HEK-293T) (PSI 1-6); higher = more stable", "details": "c terminus: a fixed tail appended", "values": [{"variant": "I8F", "protein stability index": 3.96}, {"variant": "I8C", "protein stability index": 4.75}, {"variant": "I8E", "protein stability index": 4.5}, {"variant": "I8N", "protein stability index": 4.24}, {"variant": "I8W", "protein stability index": 4.27}, {"variant": "I8H", "protein stability index": 3.17}, {"variant": "I8S", "protein stability index": 4.51}, {"variant": "I8D", "protein stability index": 4.71}, {"variant": "I8Y", "protein stability index": 4.53}, {"variant": "I8L", "protein stability index": 3.47}, {"variant": "I8K", "protein stability index": 3.63}, {"variant": "I8A", "protein stability index": 4.54}, {"variant": "I8R", "protein stability index": 3.75}, {"variant": "I8V", "protein stability index": 3.63}, {"variant": "I8Q", "protein stability index": 4.23}, {"variant": "I8M", "protein stability index": 4.67}, {"variant": "C17A", "protein stability index": 4.4}, {"variant": "C17E", "protein stability index": 4.89}, {"variant": "C17S", "protein stability index": 4.43}, {"variant": "C17D", "protein stability index": 5.48}, {"variant": "C17Q", "protein stability index": 4.38}, {"variant": "C17V", "protein stability index": 4.76}, {"variant": "C17H", "protein stability index": 4.17}, {"variant": "C17L", "protein stability index": 4.58}, {"variant": "C17I", "protein stability index": 4.4}, {"variant": "C17N", "protein stability index": 4.3}, {"variant": "C17G", "protein stability index": 3.56}, {"variant": "C17Y", "protein stability index": 4.26}, {"variant": "C17T", "protein stability index": 3.98}, {"variant": "C17M", "protein stability index": 4.72}, {"variant": "C17W", "protein stability index": 3.92}, {"variant": "C17F", "protein stability index": 4.6}, {"variant": "C17R", "protein stability index": 4.36}, {"variant": "C17P", "protein stability index": 4.71}, {"variant": "C17K", "protein stability index": 5.14}, {"variant": "K16P", "protein stability index": 4.23}, {"variant": "K16C", "protein stability index": 3.84}, {"variant": "K16Q", "protein stability index": 4.3}, {"variant": "K16M", "protein stability index": 3.94}, {"variant": "K16I", "protein stability index": 4.48}, {"variant": "K16F", "protein stability index": 3.48}, {"variant": "K16W", "protein stability index": 4.14}, {"variant": "K16S", "protein stability index": 5.11}, {"variant": "K16Y", "protein stability index": 3.61}, {"variant": "K16A", "protein stability index": 4.36}, {"variant": "K16R", "protein stability index": 3.41}, {"variant": "K16T", "protein stability index": 4.43}, {"variant": "K16D", "protein stability index": 4.82}, {"variant": "K16G", "protein stability index": 3.97}, {"variant": "K16L", "protein stability index": 4.48}, {"variant": "K16H", "protein stability index": 5}, {"variant": "K16V", "protein stability index": 4.58}, {"variant": "K16E", "protein stability index": 4.69}, {"variant": "K16N", "protein stability index": 4.54}, {"variant": "G11L", "protein stability index": 3.87}, {"variant": "G11M", "protein stability index": 3.21}, {"variant": "G11Y", "protein stability index": 3.87}, {"variant": "G11V", "protein stability index": 3.64}, {"variant": "G11T", "protein stability index": 3.96}, {"variant": "G11I", "protein stability index": 3.52}, {"variant": "G11H", "protein stability index": 4.23}, {"variant": "G11F", "protein stability index": 3.77}, {"variant": "G11W", "protein stability index": 3.76}, {"variant": "G11Q", "protein stability index": 4.01}, {"variant": "G11K", "protein stability index": 4.09}, {"variant": "G11S", "protein stability index": 4.17}, {"variant": "G11R", "protein stability index": 4.14}, {"variant": "G11E", "protein stability index": 4.75}, {"variant": "G11A", "protein stability index": 4.64}, {"variant": "G11P", "protein stability index": 4.25}, {"variant": "G11C", "protein stability index": 4.88}, {"variant": "G11N", "protein stability index": 3.86}, {"variant": "G11D", "protein stability index": 4.5}, {"variant": "R7P", "protein stability index": 4.44}, {"variant": "R7A", "protein stability index": 4.69}, {"variant": "R7C", "protein stability index": 5.01}, {"variant": "R7V", "protein stability index": 3.78}, {"variant": "R7I", "protein stability index": 4.58}, {"variant": "R7Q", "protein stability index": 4.22}, {"variant": "R7W", "protein stability index": 3.36}, {"variant": "R7T", "protein stability index": 4.74}, {"variant": "R7K", "protein stability index": 4.31}, {"variant": "R7S", "protein stability index": 4.83}, {"variant": "R7N", "protein stability index": 3.52}, {"variant": "R7G", "protein stability index": 4.56}, {"variant": "R7Y", "protein stability index": 4.14}, {"variant": "R7L", "protein stability index": 4.7}, {"variant": "R7M", "protein stability index": 4.43}, {"variant": "R7E", "protein stability index": 4.08}, {"variant": "R7H", "protein stability index": 4.78}, {"variant": "R7F", "protein stability index": 3.33}, {"variant": "R7D", "protein stability index": 4.85}, {"variant": "L2M", "protein stability index": 4.86}, {"variant": "L2Y", "protein stability index": 3.66}, {"variant": "L2E", "protein stability index": 4.71}, {"variant": "L2D", "protein stability index": 5.01}, {"variant": "L2I", "protein stability index": 3.1}, {"variant": "L2A", "protein stability index": 4.57}, {"variant": "L2G", "protein stability index": 4.77}, {"variant": "L2S", "protein stability index": 4.6}, {"variant": "L2H", "protein stability index": 4.58}, {"variant": "L2N", "protein stability index": 4.59}, {"variant": "L2R", "protein stability index": 4.33}, {"variant": "L2F", "protein stability index": 3.89}, {"variant": "L2V", "protein stability index": 4.65}, {"variant": "L2P", "protein stability index": 4.89}, {"variant": "L2W", "protein stability index": 4.53}, {"variant": "L2K", "protein stability index": 4.8}, {"variant": "L2C", "protein stability index": 5.34}, {"variant": "L2Q", "protein stability index": 5.16}, {"variant": "L2T", "protein stability index": 4.64}, {"variant": "E19C", "protein stability index": 2}, {"variant": "Q6S", "protein stability index": 4.24}, {"variant": "Q6C", "protein stability index": 4.23}, {"variant": "Q6D", "protein stability index": 4.77}, {"variant": "Q6V", "protein stability index": 3.27}, {"variant": "Q6T", "protein stability index": 3.84}, {"variant": "Q6F", "protein stability index": 2.85}, {"variant": "Q6R", "protein stability index": 2.88}, {"variant": "Q6G", "protein stability index": 3.44}, {"variant": "Q6L", "protein stability index": 3.83}, {"variant": "Q6P", "protein stability index": 4.04}, {"variant": "Q6W", "protein stability index": 3.05}, {"variant": "Q6Y", "protein stability index": 3.97}, {"variant": "Q6A", "protein stability index": 4.67}, {"variant": "Q6H", "protein stability index": 4.16}, {"variant": "Q6N", "protein stability index": 3.77}, {"variant": "Q6E", "protein stability index": 3.77}, {"variant": "Q6M", "protein stability index": 3.68}, {"variant": "Q6K", "protein stability index": 3.43}, {"variant": "Q6I", "protein stability index": 3}, {"variant": "H9D", "protein stability index": 4.9}, {"variant": "H9A", "protein stability index": 3.57}, {"variant": "H9T", "protein stability index": 3.71}, {"variant": "H9N", "protein stability index": 4.13}, {"variant": "H9I", "protein stability index": 3.8}, {"variant": "H9F", "protein stability index": 3.78}, {"variant": "H9C", "protein stability index": 4.02}, {"variant": "H9E", "protein stability index": 4.61}, {"variant": "H9M", "protein stability index": 3.59}, {"variant": "H9V", "protein stability index": 4.48}, {"variant": "H9W", "protein stability index": 3.34}, {"variant": "H9P", "protein stability index": 4.28}, {"variant": "H9S", "protein stability index": 4.12}, {"variant": "H9L", "protein stability index": 3.98}, {"variant": "H9K", "protein stability index": 3.81}, {"variant": "H9R", "protein stability index": 3.54}, {"variant": "H9G", "protein stability index": 3.52}, {"variant": "G4P", "protein stability index": 4.14}, {"variant": "G4F", "protein stability index": 3.5}, {"variant": "G4W", "protein stability index": 2.78}, {"variant": "G4I", "protein stability index": 3.41}, {"variant": "G4M", "protein stability index": 4.18}, {"variant": "G4E", "protein stability index": 4.38}, {"variant": "G4C", "protein stability index": 4.29}, {"variant": "G4Q", "protein stability index": 4.7}, {"variant": "G4V", "protein stability index": 3.52}, {"variant": "G4D", "protein stability index": 4.09}, {"variant": "G4H", "protein stability index": 3.94}, {"variant": "G4S", "protein stability index": 4.57}, {"variant": "G4T", "protein stability index": 4.43}, {"variant": "G4Y", "protein stability index": 3.95}, {"variant": "G4L", "protein stability index": 3.83}, {"variant": "G4R", "protein stability index": 3.69}, {"variant": "G4A", "protein stability index": 4.34}, {"variant": "G4K", "protein stability index": 3.48}, {"variant": "G4N", "protein stability index": 3.42}]}]}
